Source: publication PMC7294946

Biological target: PRMT1 (UniProt Q99873)
Assay: co-IP with Flag antibody, western blot
Conditions: reference: Flag-RUNX1 wild type; sites T207

RUNX1 (from UniProt Q01196) Flag-RUNX1 T207A
binding against the reference: weaker
